Measurements: publication PMC11514480
Where two headings read alike, the source gives them in different places.

Key:
Experiment in all cases: smFRET
[1] = biological target: T1, human RPA (RPA70-RPA32-RPA14) (human, UniProt P27694;P15927;P35244 1-616;1-270;1-121)
[2] = biological target: T1, human RPA (RPA70-RPA32-RPA14); remark: listed apart in the source
[3] = biological target: yeast RPA (Saccharomyces cerevisiae, UniProt P22336;P26754;P26755 1-621;1-273;1-122)
Sequence of yeast RPA (P22336 whole entry, chain 1 of 3): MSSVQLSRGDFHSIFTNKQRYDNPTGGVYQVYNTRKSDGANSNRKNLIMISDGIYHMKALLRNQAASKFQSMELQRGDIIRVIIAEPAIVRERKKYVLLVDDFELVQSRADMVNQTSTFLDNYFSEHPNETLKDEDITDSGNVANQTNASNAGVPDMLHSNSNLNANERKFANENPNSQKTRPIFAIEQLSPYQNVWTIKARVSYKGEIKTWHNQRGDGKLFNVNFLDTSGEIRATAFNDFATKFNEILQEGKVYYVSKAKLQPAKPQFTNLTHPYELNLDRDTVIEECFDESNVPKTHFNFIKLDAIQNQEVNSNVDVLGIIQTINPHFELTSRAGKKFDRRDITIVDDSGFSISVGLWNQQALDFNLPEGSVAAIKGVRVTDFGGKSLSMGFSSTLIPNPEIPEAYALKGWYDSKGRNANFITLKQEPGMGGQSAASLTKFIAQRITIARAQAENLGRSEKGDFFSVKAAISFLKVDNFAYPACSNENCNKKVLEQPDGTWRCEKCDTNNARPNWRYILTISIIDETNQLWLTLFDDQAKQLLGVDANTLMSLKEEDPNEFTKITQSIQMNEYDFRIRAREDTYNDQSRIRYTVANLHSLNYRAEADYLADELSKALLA
Sequence of yeast RPA (P26754 whole entry, chain 2 of 3): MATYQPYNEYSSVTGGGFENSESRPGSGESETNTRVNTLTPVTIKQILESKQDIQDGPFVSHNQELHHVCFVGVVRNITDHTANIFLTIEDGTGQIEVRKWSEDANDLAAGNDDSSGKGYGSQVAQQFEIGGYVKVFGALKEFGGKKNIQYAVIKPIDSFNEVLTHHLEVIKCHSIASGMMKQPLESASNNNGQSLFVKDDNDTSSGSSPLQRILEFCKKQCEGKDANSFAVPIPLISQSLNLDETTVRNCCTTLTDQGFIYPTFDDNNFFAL
Sequence of yeast RPA (P26755 whole entry, chain 3 of 3): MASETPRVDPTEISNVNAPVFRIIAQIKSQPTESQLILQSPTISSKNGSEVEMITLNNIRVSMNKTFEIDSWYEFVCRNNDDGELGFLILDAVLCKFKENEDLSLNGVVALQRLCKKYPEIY

T1 sequence (P27694 whole entry, chain 1 of 3): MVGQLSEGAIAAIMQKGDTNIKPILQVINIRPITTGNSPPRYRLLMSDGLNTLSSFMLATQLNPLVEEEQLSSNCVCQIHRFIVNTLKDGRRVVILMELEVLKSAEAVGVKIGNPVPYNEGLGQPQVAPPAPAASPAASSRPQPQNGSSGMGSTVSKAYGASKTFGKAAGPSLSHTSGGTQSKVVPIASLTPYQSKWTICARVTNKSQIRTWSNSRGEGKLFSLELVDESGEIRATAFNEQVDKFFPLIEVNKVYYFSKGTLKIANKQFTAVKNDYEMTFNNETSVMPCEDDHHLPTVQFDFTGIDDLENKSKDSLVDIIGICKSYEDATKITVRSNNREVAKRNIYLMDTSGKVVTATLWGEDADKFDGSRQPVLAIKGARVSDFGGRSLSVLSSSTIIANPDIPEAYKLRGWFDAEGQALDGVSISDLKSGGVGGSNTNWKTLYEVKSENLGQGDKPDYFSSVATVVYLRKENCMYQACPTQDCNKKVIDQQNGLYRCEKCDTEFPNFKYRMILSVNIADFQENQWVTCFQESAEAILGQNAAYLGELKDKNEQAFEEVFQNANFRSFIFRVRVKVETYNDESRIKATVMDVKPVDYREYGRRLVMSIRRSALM
T1 sequence (P15927 whole entry, chain 2 of 3): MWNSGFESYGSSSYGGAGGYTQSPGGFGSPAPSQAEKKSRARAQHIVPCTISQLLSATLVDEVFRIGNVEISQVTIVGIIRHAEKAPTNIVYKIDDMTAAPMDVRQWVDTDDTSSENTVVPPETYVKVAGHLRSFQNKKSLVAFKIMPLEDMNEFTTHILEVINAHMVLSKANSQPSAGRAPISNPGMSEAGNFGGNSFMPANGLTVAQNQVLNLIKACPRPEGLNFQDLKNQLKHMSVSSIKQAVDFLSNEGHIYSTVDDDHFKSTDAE
T1 sequence (P35244 whole entry, chain 3 of 3): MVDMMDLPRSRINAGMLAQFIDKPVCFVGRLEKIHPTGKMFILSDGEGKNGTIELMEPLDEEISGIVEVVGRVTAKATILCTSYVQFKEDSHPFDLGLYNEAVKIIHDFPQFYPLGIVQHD

Binder	binding result [1]	binding result [2]	binding result [3]
TTTTTTTTTTTTTTT (ssDNA) [(dT)15]	binds	–	–
TTTTTTTTTTTTTTTTTTTTTTTTT (ssDNA) [(dT)25]	–	binds	binds
TTTTTTTTTTTTTTTTTTTTTTTTTTTTTT (ssDNA) [(dT)30]	binds	–	–
TTTTTTTTTTTTTTTTTTTTTTTTTTTTTTTTTTTTTTTTTTTTT (ssDNA) [(dT)45]	binds	–	–
